Experimental data as given in patent US20150166647A1 (VLST, published 2015).

T1: human MIP-1α/CCL3 (human, UniProt P10147 24-92)
T1 construct: also called Biotin-MIP-1α
T1 sequence: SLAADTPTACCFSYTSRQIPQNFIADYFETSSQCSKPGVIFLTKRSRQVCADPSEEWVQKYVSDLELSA

T2: I-TAC
T2 construct: also called I-TAC/CXCL11; CXCL11
T2 chemokine: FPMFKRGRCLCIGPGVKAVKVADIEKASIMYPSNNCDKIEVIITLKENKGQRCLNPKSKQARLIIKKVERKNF

T3: BRAK
T3 construct: also called BRAK/CXCL14; CXCL14
T3 chemokine: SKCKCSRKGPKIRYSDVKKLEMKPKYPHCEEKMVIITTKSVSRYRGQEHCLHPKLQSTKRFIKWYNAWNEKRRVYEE

T4: CTACK
T4 construct: also called CTACK/CCL27; CCL27
T4 chemokine: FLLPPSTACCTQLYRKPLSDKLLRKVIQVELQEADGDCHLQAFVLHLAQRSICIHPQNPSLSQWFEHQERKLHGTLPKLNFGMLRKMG

T5: XCL1
T5 chemokine: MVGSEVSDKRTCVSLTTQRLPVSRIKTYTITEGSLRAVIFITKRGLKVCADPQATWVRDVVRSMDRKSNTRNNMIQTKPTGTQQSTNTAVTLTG

T6: BCA1
T6 construct: also called BCA-1/BLC/CXCL13; CXCL13
T6 chemokine: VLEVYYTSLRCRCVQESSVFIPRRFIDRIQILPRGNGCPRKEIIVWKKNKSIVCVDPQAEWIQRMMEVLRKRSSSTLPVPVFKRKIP

T7: PF4
T7 construct: also called PF4/CXCL4; CXCL4
T7 chemokine: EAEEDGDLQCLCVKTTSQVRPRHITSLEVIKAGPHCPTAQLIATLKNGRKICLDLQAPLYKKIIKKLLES

T8: NAP-2
T8 construct: also called NAP-2/CXCL7; CXCL7
T8 chemokine: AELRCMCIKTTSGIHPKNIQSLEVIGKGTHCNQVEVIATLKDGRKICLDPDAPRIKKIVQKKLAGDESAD

B1: monoclonal antibody 7D12A (antibody, V domains shown)
VH: EVHLQESGPSLVKPSQTLSLTCSVTGDSITNGYWNWIRKFPGNKLDYMGYISYDGNTYYNPSLKSRFSITRDTSKNQYYLQLNSVTTEDTATYYCSRGDYGTYVMDYWGQGTSVTVSS
VL: NIVLTQSPVSLAVSLGQRATISCRASESVDSHGNSFMHWYQQKPGQPPKLLIYLASNLESGVPARFTGGGSGSDFTLTIDPVEADDVGTYYCQQNNEDPYTFGGGTKLEIK
notes: also called MAb 7D12A
B2: monoclonal antibody 18V4F (antibody, V domains shown)
VH: QVQLKESGPGLVAPSQSLSITCTVSGFSLTGYGIHWVRQPPGKGLEWLGVIWPGGGTNYNSALMSRLSISKDNSKSQVFLKMNSLQTDDTAMYYCARGPLITTEVSMDYWGQGTSVTVSS
VL: QAVVTQESALTTSPGETVTLTCRSNTGAVTTSNYANWVQEKPDHLFTGLIGGTNNRAPGVPARFSGSLIGDKAALTITGAQTEDEAIYFCALWYSNHWVFGGGTKLTVLG
notes: also called MAb 18V4F

Legend:
[1] = biological target: T1, human MIP-1α/CCL3; test: ELISA, hybridoma fusion-well supernatant on coated MIP-1α; background approx. 0.150
[2] = biological target: T9, IL-8; test: MSD electrochemiluminescence assay; chemokine coated at 1 µg/mL, 18V4F at 3 µg/mL; background = BSA
T9 construct: also called IL-8/CXCL8; CXCL8

[3] = biological target: T10, GCP2; test: as above
T10 construct: also called GCP-2/CXCL6; CXCL6

[4] = biological target: T11, Groβ; test: as above
T11 construct: also called Gro-β/CXCL2; CXCL2

[5] = biological target: T2, I-TAC; test: as above
[6] = biological target: T3, BRAK; test: as above
[7] = biological target: T4, CTACK; test: as above
[8] = biological target: T5, XCL1; test: as above
[9] = biological target: T12, SDF; test: as above
T12 construct: also called SDF-1/CXCL12; CXCL12

[10] = biological target: T6, BCA1; test: as above
[11] = biological target: T7, PF4; test: as above
[12] = biological target: T13, Groγ; test: as above
T13 construct: also called Gro-γ/CXCL3; CXCL3

[13] = biological target: T14, ENA-78; test: as above
T14 construct: also called ENA-78/CXCL5; CXCL5

[14] = biological target: T8, NAP-2; test: as above
[15] = biological target: T15, Groα; test: as above
T15 construct: also called Gro-α/CXCL1; CXCL1
T15 sequence (chemokine, as listed by the source): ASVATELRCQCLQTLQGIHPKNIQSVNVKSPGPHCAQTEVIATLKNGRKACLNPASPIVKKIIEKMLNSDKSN

T10 sequence (chemokine, as listed by the source): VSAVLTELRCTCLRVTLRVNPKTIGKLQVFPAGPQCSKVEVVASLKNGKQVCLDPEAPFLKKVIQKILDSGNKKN
T9 sequence (chemokine, as listed by the source): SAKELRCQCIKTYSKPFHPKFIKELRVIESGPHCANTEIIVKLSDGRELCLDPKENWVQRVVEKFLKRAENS
T14 sequence (chemokine, as listed by the source): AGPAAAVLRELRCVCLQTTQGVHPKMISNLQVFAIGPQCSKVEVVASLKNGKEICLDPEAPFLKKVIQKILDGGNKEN
T12 sequence (chemokine, as listed by the source): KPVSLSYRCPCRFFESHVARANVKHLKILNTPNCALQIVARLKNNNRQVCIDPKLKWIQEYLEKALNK
T11 sequence (chemokine, as listed by the source): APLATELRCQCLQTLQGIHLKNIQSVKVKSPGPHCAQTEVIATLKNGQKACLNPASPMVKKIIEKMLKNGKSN
T13 sequence (chemokine, as listed by the source): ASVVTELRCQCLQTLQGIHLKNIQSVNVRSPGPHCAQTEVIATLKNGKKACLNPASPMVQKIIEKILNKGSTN

Binder | ELISA signal [1] | binding result [2] | binding result [3] | binding result [4] | binding result [5] | binding result [6] | binding result [7] | binding result [8] | binding result [9] | binding result [10] | binding result [11] | binding result [12] | binding result [13] | binding result [14] | binding result [15]
B1 | 1.47 |  |  |  |  |  |  |  |  |  |  |  |  |  | 
B2 |  | no binding (tested: 3 µg/mL) | no binding (tested: 3 µg/mL) | no binding (tested: 3 µg/mL) | no binding (tested: 3 µg/mL) | no binding (tested: 3 µg/mL) | no binding (tested: 3 µg/mL) | no binding (tested: 3 µg/mL) | no binding (tested: 3 µg/mL) | no binding (tested: 3 µg/mL) | no binding (tested: 3 µg/mL) | no binding (tested: 3 µg/mL) | no binding (tested: 3 µg/mL) | no binding (tested: 3 µg/mL) | no binding (tested: 3 µg/mL)
